# According to patent US6821728B1, “Screening system” (priority 1998, dated 2004):
# How the values were obtained:
# mutated p53 (p53 R273H) = mutated p53 (p53 R273H) (Homo sapiens, UniProt P04637, R273H); conditions: synthetic peptide fused to the Drosophila Antennapedia internalisation domain (17 amino acids); cited from earlier work
# mutated p53 R273H = molecular target: T1, mutated p53 R273H (Homo sapiens, UniProt P04637, R273H); experiment: transactivation experiments in yeast strain YDE4xp53 (LacZ expression, beta-galactosidase); assay type: cell-based; conditions: peptide expressed from the pESBA-ADH or pESBA-ACT vector in yeast
# T1 construct: expressed in transfected cells; host or cells: Saccharomyces cerevisiae strain YDE4xp53 (derivative of JPY9)
# Source text: The agonistic action of the inventive screening system has been shown for the tumor suppressor gene p53. The tumor suppressor gene p53 is mutated in more than 50% of all human cancers which results in the inability to properly bind to the p53 binding site sin target genes responsible to induce cell cycle arrest or apoptosis. The four most commonly found mutations occur in the DNA binding domain of p53 and lead to a single amino acid substitution. […] This opens the possibility to use the peptide libraries according to the present invention to screen for peptides which restore the mutated p53 to wild type activity or to use this system to screen for agonistic actions of peptides in general. […]
# Yeast strain YDE4xp53 was transformed with the conventional lithium acetate method (Methods in Yeast Genetics, a Cold Spring Harbor Laboratory Course Manual, Cold Spring Harbor Laboratory Press, 1994) with wild type and mutated p53 expression vectors. Transactivation potential of the different p53 molecules was determined by measurement of the LacZ expression on X-gal plates and liquid beta-galactosidase assays as described (Escher and Schaffner, Gene Activation at a Distance and Telomeric Silencing . . . , Mol. Gen. Genet. (1997) 256; 456-461). […]
# [1] = molecular target: T2, interaction between GAL4 and GAL11P (Saccharomyces cerevisiae, UniProt P19659, N342I); experiment: inhibition of GAL4(1-100)-GAL11P interaction and reporter gene (LacZ/URA3) activation in yeast; assay type: cell-based; conditions: expressed from a high-copy plasmid (2 μm) in yeast, vector pESBA-ADH1
# T2 construct: expressed in transfected cells; host or cells: Saccharomyces cerevisiae, JPY9 derivative (gal4Δ11) with integrated pESBA-17mer-URA3
# T2 sequence (P19659 whole entry N342I, the tested form may be a part): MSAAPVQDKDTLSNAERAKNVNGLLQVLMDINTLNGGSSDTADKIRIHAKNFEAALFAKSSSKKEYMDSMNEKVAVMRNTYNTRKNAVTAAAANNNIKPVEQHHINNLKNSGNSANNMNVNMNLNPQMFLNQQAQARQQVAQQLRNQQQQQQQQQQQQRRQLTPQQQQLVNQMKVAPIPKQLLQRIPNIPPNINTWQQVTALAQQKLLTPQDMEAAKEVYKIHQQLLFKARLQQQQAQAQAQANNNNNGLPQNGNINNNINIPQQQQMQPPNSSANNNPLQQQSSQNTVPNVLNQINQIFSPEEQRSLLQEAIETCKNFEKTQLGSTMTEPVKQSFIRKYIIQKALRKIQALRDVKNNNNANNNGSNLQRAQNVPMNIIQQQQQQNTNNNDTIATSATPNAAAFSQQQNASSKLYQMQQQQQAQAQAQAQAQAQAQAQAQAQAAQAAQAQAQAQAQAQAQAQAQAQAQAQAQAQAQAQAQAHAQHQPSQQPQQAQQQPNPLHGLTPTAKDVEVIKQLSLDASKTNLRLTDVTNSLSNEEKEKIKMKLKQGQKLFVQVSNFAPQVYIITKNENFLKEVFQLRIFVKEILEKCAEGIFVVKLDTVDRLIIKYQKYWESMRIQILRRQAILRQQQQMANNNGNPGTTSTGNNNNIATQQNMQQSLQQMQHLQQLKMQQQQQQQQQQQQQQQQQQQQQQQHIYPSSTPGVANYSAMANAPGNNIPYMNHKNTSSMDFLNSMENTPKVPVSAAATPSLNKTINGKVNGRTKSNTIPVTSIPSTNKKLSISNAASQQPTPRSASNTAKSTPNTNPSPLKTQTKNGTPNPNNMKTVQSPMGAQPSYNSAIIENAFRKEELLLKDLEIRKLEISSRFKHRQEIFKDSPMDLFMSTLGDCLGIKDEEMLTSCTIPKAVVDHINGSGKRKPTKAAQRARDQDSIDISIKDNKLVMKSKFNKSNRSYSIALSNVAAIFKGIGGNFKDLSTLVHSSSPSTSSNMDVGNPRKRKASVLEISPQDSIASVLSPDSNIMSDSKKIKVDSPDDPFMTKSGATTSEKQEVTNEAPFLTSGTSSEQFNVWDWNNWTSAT
# Source text: To test the antagonistic action of short protein fragments or peptides in yeast, it was checked whether high production of a peptide could inhibit a defined molecular interaction.
# The yeast strain used in these experiments is a derivative of JPY9 (MATα, ura3-52, his3Δ200, leu2Δ1, trp1Δ63, lys2Δ385, gal4Δ11) (A. Barberis et al., Cell, Vol. 81, 359-368) in which the reporter construct pESBA-17mer-URA3 was integrated at the his3 locus. Integration through homologous recombination was piloted by linearisation of the reporter plasmid at the XhoI site prior to yeast transformation. Expression of the URA3 gene was exploited to select for stable integrants on ura-media. […] Upon selection for integration of the reporter construct, this plasmid was readily cured from yeast cells by negative selection for URA3 expression on media containing 5-FOA (ref. Guide to Yeast Genetics and Molecular Biology)
# Activation of the divergent LacZ and URA3 reporter genes in the yeast strain described above was induced by co-expression of the DNA-binding domain of GAL4 (amino acid residues 1-100) and GAL11P. GAL4(1-100) was expressed from the plasmid pRJR217 (Y. Wu et al., Quantification of Putative Activator- Target Affinities . . . , EMBO J. 15, 3951-3963, 1996), while GALllP was expressed from pSO28 (A. Barberis et. al., Cell Vol. 81, 359-368). […]
Substance,restoration of DNA binding activity of the mutated p53 (mutated p53 (p53 R273H)),reactivation of mutated p53 R273H in transactivation experiments (mutated p53 R273H),inhibition of GAL4-GAL11P protein-protein interaction and its effect on gene expression [1]
"22mer peptide 46: 22 amino acid long peptide stemming from the carboxy-terminal part of p53 (361-382) (GSRAHSSHLKSKKGQSTSRHKK; UniProt P04637 361-382, looked up, fragment)",can restore DNA binding activity of the mutated p53,sufficient to partially reactivate mutated p53 R273H,–
"short protein fragment: peptide comprising the GAL4 residues 58-97, known to contain the GAL11P-interacting sequence, overexpressed from vector pESBA-ADH1",–,–,could be specifically inhibited
